Experimental data published in the supplement of paper PMC7125110.
± gives the standard error. Fewer inactive variants are shown than the library holds.

B1: glmS ribozyme (parent)
chain: AUAAAAGCGCCAGAACUACAGAAAUGUAGUUGACGAGGAGGAGGUUUAUCGAAUUUUCGGCGGAUGCCUCCAAA

Legend:
Conditions in all cases: with glucosamine-6-phosphate
glucosamine-6-phosphate [1] = variants of: B1; experiment: self-cleavage kobs at 40 uM GlcN6P; higher = faster cleavage; RNA array
Outline: (§1)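 kcat and KM were obtained from weighted Michaelis–Menten fits across concentrations of kobs values. Those came from one- or two-exponential decay fits to per-tile medians normalised to baseline and to non-cleaving reference variants. The variants were barcoded ribozymes transcribed in situ by E. coli RNA polymerase on sequenced MiSeq chips and tracked through a hybridised Cy3 probe at 37 °C, with 40 μM to 10 mM glucosamine-6-phosphate in HEPES/KCl/Mg(OAc)2 buffer flowed in.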

glucosamine-6-phosphate [2] = variants of: B1; experiment: self-cleavage kobs at 160 uM GlcN6P; higher = faster cleavage; RNA array
Outline: as §1

glucosamine-6-phosphate [3] = variants of: B1; experiment: self-cleavage kobs at 640 uM GlcN6P; higher = faster cleavage; RNA array
Outline: as §1

glucosamine-6-phosphate [4] = variants of: B1; experiment: self-cleavage kobs at 10000 uM GlcN6P; higher = faster cleavage; RNA array
Outline: as §1

glucosamine-6-phosphate [5] = variants of: B1; experiment: self-cleavage kobs at 2500 uM GlcN6P; higher = faster cleavage; RNA array
Outline: as §1

Variant	self-cleavage kobs at 40 uM GlcN6P (glucosamine-6-phosphate [1]) [s⁻¹]	self-cleavage kobs at 160 uM GlcN6P (glucosamine-6-phosphate [2]) [s⁻¹]	self-cleavage kobs at 640 uM GlcN6P (glucosamine-6-phosphate [3]) [s⁻¹]	self-cleavage kobs at 10000 uM GlcN6P (glucosamine-6-phosphate [4]) [s⁻¹]	self-cleavage kobs at 2500 uM GlcN6P (glucosamine-6-phosphate [5]) [s⁻¹]
C8G A36G	< 1e-05	< 1e-05	< 1e-05	< 1e-05	–
G40U G51U G62A C68U	< 1e-05	–	–	< 1e-05	–
C10G G29A G37A G38U G41C C71U	< 1e-05	–	–	< 1e-05	–
G9C C58G C68A	< 1e-05	–	–	–	–
A39U U45A	0.000759 ± 9.8e-05	0.00209 ± 0.00053	0.0067 ± 0.0015	0.0807 ± 0.02	0.0135 ± 0.0033
A15U A39C G41C	< 1e-05	–	< 1e-05	–	< 1e-05
G9A C10G C68U	< 1e-05	–	–	–	–
G51C A53U	< 1e-05	< 1e-05	–	–	< 1e-05
A6C C10G	< 1e-05	< 1e-05	< 1e-05	< 1e-05	–
U46G U49C	< 1e-05	< 1e-05	< 1e-05	< 1e-05	< 1e-05
A6G G7U	< 1e-05	< 1e-05	–	< 1e-05	< 1e-05
U54A U69C	0.000835 ± 0.00028	0.000323 ± 8.9e-05	0.000282 ± 6e-05	0.000426 ± 0.00011	0.000214 ± 6.2e-05
U30A G62A	< 1e-05	–	< 1e-05	< 1e-05	< 1e-05
C10U A42U	< 1e-05	< 1e-05	< 1e-05	< 1e-05	< 1e-05
C16G C34G C50A A64G	< 1e-05	–	–	–	–
C11U A15C G62C	< 1e-05	–	–	< 1e-05	–
A6U A33U A36G G38C U46G C61U	< 1e-05	–	–	–	–
A33C G35C	< 1e-05	< 1e-05	< 1e-05	< 1e-05	–
C8G C71A	< 1e-05	< 1e-05	< 1e-05	–	< 1e-05
C34A G60U C68A	< 1e-05	–	< 1e-05	–	< 1e-05
A33U C67G	< 1e-05	< 1e-05	< 1e-05	–	–
G41A U49C U56A	< 1e-05	–	–	–	–
G38A A42U G44U A48G	< 1e-05	–	–	–	–

Variant	self-cleavage kobs at 40 uM GlcN6P (glucosamine-6-phosphate [1]) [s⁻¹]	self-cleavage kobs at 160 uM GlcN6P (glucosamine-6-phosphate [2]) [s⁻¹]	self-cleavage kobs at 640 uM GlcN6P (glucosamine-6-phosphate [3]) [s⁻¹]	self-cleavage kobs at 10000 uM GlcN6P (glucosamine-6-phosphate [4]) [s⁻¹]	self-cleavage kobs at 2500 uM GlcN6P (glucosamine-6-phosphate [5]) [s⁻¹]
G9U C16U G43U A53U	< 1e-05	–	–	< 1e-05	–
C10U U65A	< 1e-05	< 1e-05	< 1e-05	< 1e-05	< 1e-05
G37U G40U U45C	< 1e-05	–	–	< 1e-05	–
C8G G37C	< 1e-05	–	< 1e-05	< 1e-05	–
G44A G63U	< 1e-05	< 1e-05	< 1e-05	< 1e-05	< 1e-05
C8U A12U A33C G59U C67G U69G	< 1e-05	–	–	< 1e-05	< 1e-05
G38A U46C A53C U54C C68A	< 1e-05	–	–	< 1e-05	–
U31A U49G C71U	< 1e-05	–	–	–	–
C50U A52C	< 1e-05	< 1e-05	–	< 1e-05	< 1e-05
U49C G59C	< 1e-05	–	–	< 1e-05	< 1e-05
A6U A12U G32U G60U	< 1e-05	–	–	–	–
C11U G13A A33C A53U	< 1e-05	–	–	–	–
A15U G29A G43A	< 1e-05	–	–	< 1e-05	–
G32U A42U C58U	< 1e-05	–	–	3.73e-05 ± 1.3e-05	–
C10U G37C A42C	< 1e-05	–	–	< 1e-05	< 1e-05
G7C A15G	< 1e-05	–	–	< 1e-05	–
G35A G41A	< 1e-05	< 1e-05	< 1e-05	< 1e-05	< 1e-05
G38C U65C	< 1e-05	< 1e-05	< 1e-05	< 1e-05	–
A39C C68G	< 1e-05	–	–	< 1e-05	–
C10A G29A C67G	0.000103 ± 3.7e-05	–	–	0.000102 ± 3e-05	–
G13C U49G	< 1e-05	< 1e-05	< 1e-05	–	–
C8U G9A C16U C50U A52U	< 1e-05	–	–	< 1e-05	< 1e-05
C11G A64U C67A	< 1e-05	–	–	< 1e-05	–
